Key:
[1] = Body weight increase of wild type mice on high-fat diet with intragastric mLeg1-Re; assay type: in vivo, mouse; settings: 20 μg intragastric every day, one month
Experimental: 23.4 10-weeks old wild type mice having the similar body weight (t1) were randomly divided into 3 groups with 3 to 4 mice in each group. The wild type mice were fed with high-fat diet and intragrastric administration with 20 μg of mLeg1-Re protein every day, which served as mLeg1-Re administration experimental group. Another group of wild type mice of the same age were fed with the same high-fat diet and intragrastric administration with the same amount of bovine serum albumin (BSA) every day, which served as BSA administration control group. The left group of wild type mice at the same age were fed with the same standard chow diet, which served as another control group. One month later, the body weight (t2) of these mice were measured, and the results were represented by increased body weight […]. The experiment was repeated twice, and the final body weight changes (i.e., increased body weight) were averaged.

[2] = system: Akt phosphorylation of the HepG2 cells; assay: Akt phosphorylation of HepG2 cells incubated with recombinant mLeg1-Re, alone or with wild-type mLeg1; assay type: cell-based, human
Experimental: 23.3 The extracted recombinant protein mLeg1-Re and the wild type mLeg1 protein were used to incubate the HepG2 cells, and then the Akt phosphorylation level of the HepG2 cell was detected. As to the details, reference can be made to step 18.2.2.
The partially purified wild-type mLeg1 protein (50 ng) was mixed with excess mLeg1-Re protein (500 ng) for 10 minutes, and then used to incubate HepG2 cell for 10 minutes, and then the Akt phosphorylation level was detected in these cells. […] It is highly likely attributed to the fact that the mLeg1-Re protein is also capable of competitively binding to the EGFR, thereby blocking the ability of the wild-type mLeg1 to bind to the EGFR and activate downstream Akt.

[3] = molecular target: T1, EGFR (Mus musculus, UniProt Q01279); assay: EGFR pulled down with mLeg1-Re from liver after intragastric administration (co-immunoprecipitation); assay type: in vivo; settings: liver of mLeg1Δ/Δ mice, two hours after the intragastric administration
T1 construct: from tissue; host or cells: liver of mLeg1^Δ/Δ mice
From the text: (§1) In order to further verify this hypothesis, the inventors administered the mLeg1-Re protein to the mLeg1^Δ/Δ mice by intragastric administration, and detected, by the method of co-immunoprecipitation, whether the mLeg1-Re protein could reach the liver and bind to EGFR in the liver.

[4] = mLeg1-Re protein in liver of mLeg1Δ/Δ mice after intragastric administration (co-immunoprecipitation); assay type: in vivo, mouse; settings: two hours after the intragastric administration
From the text: as §1

B1: mLeg1-Re protein: modification-defective recombinant mLeg1 protein expressed in an Escherichia coli expression system (protein)
chain: EVSDSSDPYPPLWEDSPEQLSDYMMEDGNYIINPWVYTDRMGMYRILLEETAMYFAKYGPENEQNLLWGLPLQFGWQYQSGRLADPTGMTDCGNELNESLCVSVDSWWADINYYLSVIPFLAAVDSGITGISPNQITILPPPKDQMRFCYNVSDCQSAVPGTMNRWRDFFQYMQLNSSDFDGLLNYLWEAHASSLDYPTSAFGDRYNFYSEKEANFEENWAIAVNYLAAARLPTTQNRTYSFQRGLPPRVLVDTDIAPFIPDFTPLQNEVLVSLKLLGDTDRNSGSLSLTLWENLMSTKLARTLFLKAFEEFLATSS
modifications: left off: small tags and cut ends
notes: modification-defective recombinant mLeg1 protein expressed in an Escherichia coli expression system
What does the source list for B1?
body weight increase compared with BSA control group [1]: significantly lower; body weight increase compared with mice fed standard chow diet [1]: almost the same as that of the mice fed with standard chow diet; ability to induce Akt phosphorylation ([2]; HepG2 incubated with mLeg1-Re alone): lost the ability to induce Akt phosphorylation; ability of the mLeg1 protein to activate Akt ([2]; HepG2 incubated with mLeg1-Re for 10 minutes first, then mLeg1 added): completely inhibited; inhibition of mLeg1-induced Akt phosphorylation ([2]; mLeg1 (50 ng) mixed with excess mLeg1-Re (500 ng) for 10 minutes, then HepG2 10 minutes): cannot inhibit the functions of the mLeg1 protein; EGFR in the protein pulled down by the mLeg1 antibody [3]: significant EGFR protein level could be detected; mLeg1-Re protein in the liver [4]: could be detected in the liver

From patent publication US20180312557A1, “Leg1 Protein, Leg1 Gene, and Uses and Drugs thereof” (ZHEJIANG UNIVERSITY, priority 2016, published 2018)
